Assay results from paper PMC10938605 (Science Advances, 2022).
Blank lines part the entries; values can stand above or below the binder they belong to.

Legend:
[1] = molecular target: T1, recombinant CYLD WT (GST tag cleaved) (human, UniProt Q9NQC7 1-956); test: pull-down
T1 sequence (looked up): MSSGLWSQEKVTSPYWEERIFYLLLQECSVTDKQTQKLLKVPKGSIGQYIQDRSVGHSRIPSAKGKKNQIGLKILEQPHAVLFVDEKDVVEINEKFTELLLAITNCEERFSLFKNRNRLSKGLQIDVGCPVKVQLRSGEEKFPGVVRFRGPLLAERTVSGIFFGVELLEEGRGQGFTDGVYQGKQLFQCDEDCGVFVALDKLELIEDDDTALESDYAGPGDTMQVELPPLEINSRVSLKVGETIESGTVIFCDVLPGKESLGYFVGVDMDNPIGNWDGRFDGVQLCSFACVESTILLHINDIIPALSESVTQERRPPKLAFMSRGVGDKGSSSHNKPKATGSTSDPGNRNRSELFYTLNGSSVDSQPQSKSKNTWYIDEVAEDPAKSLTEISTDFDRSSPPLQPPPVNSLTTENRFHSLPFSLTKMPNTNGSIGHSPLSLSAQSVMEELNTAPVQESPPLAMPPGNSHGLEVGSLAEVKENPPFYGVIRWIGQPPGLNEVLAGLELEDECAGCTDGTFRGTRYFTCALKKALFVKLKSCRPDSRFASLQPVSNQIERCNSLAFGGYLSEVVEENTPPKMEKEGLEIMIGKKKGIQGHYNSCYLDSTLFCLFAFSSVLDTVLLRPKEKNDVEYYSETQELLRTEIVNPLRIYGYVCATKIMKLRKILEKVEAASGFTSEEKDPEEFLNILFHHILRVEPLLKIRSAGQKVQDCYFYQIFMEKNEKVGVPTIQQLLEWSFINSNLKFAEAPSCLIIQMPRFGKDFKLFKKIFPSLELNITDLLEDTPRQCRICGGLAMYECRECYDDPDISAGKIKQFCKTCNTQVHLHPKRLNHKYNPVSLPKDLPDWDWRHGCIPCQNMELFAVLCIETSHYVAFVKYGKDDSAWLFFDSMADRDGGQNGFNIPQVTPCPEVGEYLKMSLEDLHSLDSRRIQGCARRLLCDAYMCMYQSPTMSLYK

[2] = molecular target: T2, purified recombinant GST-tagged CYLD (human, UniProt Q9NQC7 1-956); test: pull-down
T2 sequence (looked up): T1 sequence (looked up)

binding result [1]: binds
B1: purified recombinant GST-tagged PARIS (natural protein)
chain: not shown

binding result [2]: binds
B2: recombinant PARIS (prey of the reciprocal GST pull-down) (natural protein)
chain: not shown
